Assay results as given in patent US20220153819A1 (Regeneron, published 2022).

Columns and labels:
[1] = target: T1, Influenza A group 1 HA Foldon.6×His (Influenza A virus (H1N1)); experiment: SPR (Biacore 8k), 25C; HA Foldon-6xHis captured via anti-His, bsAb injected
T1 construct: also called HA-6×His; HA.6×His

[2] = target: T1, Influenza A group 1 HA Foldon.6×His; experiment: SPR (Biacore 8k), 37C; HA Foldon-6xHis captured via anti-His, bsAb injected

B1: REGN6093, anti-Influenza HA x anti-C1q bispecific antibody (bispecific antibody, V domains shown)
VH 1: QVHLVQSGPEVKKPGSSVKVSCKASGVTFISHAISWVRQAPGQGLEWVGGIIAIFGTTNYAQKFQGRVTVTTDKSTNTVYMELSRLRSEDTAIYYCARGETYYEGNFDFWGQGTLVTVSS
VH 2: EVQLVESGGGVVQPGGSLRLSCAASGFSLDDYAMHWVRQTPGKGLEWVSLISGDGSRTSYADSVKGRFTISRDNSKNSLYLKMNSLRTEDTALYYCTKDPHNSNWFDPWGQGTLVTVSS
VL: not shown
notes: also called FluA group 1 x C1q bispecific; anti-HA x anti-C1q
Binder B1 has a Kd [1] of 1110 pM, a koff [1] of 0.000175 s⁻¹ and a kon [1] of 158000 M⁻¹ s⁻¹. It also gave a t1/2 [1] of 1.1 h, a Kd [2] of 519 pM and a koff [2] of 5.15e-05 s⁻¹. For the same binder, the kon [2] was 99400 M⁻¹ s⁻¹ and the t½ [2] was 3.74 h.
